For one test, the target named is T1, CRF2R.
T1 sequence (Q13324 whole entry, species assumed, looked up): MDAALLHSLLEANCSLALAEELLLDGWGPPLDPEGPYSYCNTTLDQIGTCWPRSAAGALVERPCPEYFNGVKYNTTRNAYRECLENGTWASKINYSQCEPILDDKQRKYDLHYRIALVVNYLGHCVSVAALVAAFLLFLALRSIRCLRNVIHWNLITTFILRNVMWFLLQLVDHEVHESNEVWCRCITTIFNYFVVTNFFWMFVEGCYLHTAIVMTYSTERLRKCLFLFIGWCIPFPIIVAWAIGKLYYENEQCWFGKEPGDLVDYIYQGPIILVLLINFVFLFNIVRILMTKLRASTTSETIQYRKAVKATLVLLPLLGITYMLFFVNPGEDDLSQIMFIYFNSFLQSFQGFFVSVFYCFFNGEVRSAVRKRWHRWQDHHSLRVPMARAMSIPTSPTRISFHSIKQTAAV
Put plainly: cell-based or functional assay.

The next test has as its target CRF1R. The test is described as follows: cell-based or functional assay.

Ends that are not written are not given here.

B1: SEQ ID NO 5 (peptide)
peptide: IVLSLDVPGPLLQILLEQTKQEAAREQATTNARILARV-NH2
For the molecule B1, in the test with CRF2R, the “CRF2R EC50” value was 100 nM and the “CRF2R Emax” value came to 12%. Also, in the test with CRF1R, the “CRF1R EC50” value was 100 nM and the “CRF1R Emax” value amounted to 9%.

B2: SEQ ID NO 112 (peptide)
peptide: IVLSLDVPIGLLQILLEQAKAEAAREQATTNARILARV-NH2
As to B2, in the test with CRF2R, the “CRF2R EC50” value worked out at 12.3 nM and the “CRF2R Emax” value was determined as 100%. In addition, in the test with CRF1R, the “CRF1R EC50” value is above 100 nM and the “CRF1R Emax” value worked out at 10%.

B3: SEQ ID NO 104 (peptide)
peptide: SQEPPISLDLPFHLLREVLEMTKADQLAQQAHSNRKLLDIA-NH2
B3: in the test with CRF2R, the “CRF2R EC50” value came to 100 nM and the “CRF2R Emax” value was found to be 4.5%. Besides, in the test with CRF1R, the “CRF1R EC50” value was 100 nM and the “CRF1R Emax” value was 11.1%.

B4: SEQ ID NO 87 (peptide)
peptide: SQEPPISLDLTIHLLREVLEMTKADQLAQQAHSNRKLLDIA-NH2
B4: in the test with CRF2R, the “CRF2R EC50” value turned out to be 100 nM and the “CRF2R Emax” value was found to be 14.7%. Besides, in the test with CRF1R, the “CRF1R EC50” value was 100 nM and the “CRF1R Emax” value was 5.3%.

B5: SEQ ID NO 93 (peptide)
peptide: SQEPPISLDLPIGLLREVLEMTKADQLAQQAHSNRKLLDIA-NH2
With B5, in the test with CRF2R, the “CRF2R EC50” value is 100 nM and the “CRF2R Emax” value stood at 6.4%. In the test with CRF1R, the “CRF1R EC50” value worked out at 100 nM and the “CRF1R Emax” value turned out to be 5%.

B6: SEQ ID NO 95 (peptide)
peptide: SQEPPISLDLPLQLLREVLEMTKADQLAQQAHSNRKLLDIA-NH2
Take B6: in the test with CRF2R, the “CRF2R EC50” value worked out at 100 nM and the “CRF2R Emax” value stood at 8.25%. In the test with CRF1R, the “CRF1R EC50” value worked out at 100 nM and the “CRF1R Emax” value came out at 5.55%.

B7: SEQ ID NO 94 (peptide)
peptide: SQEPPISLDLPIHLLREVLEMTKADQLAQQAHSNRKLLDIA-NH2
As to B7, in the test with CRF2R, the “CRF2R EC50” value was determined as 100 nM and the “CRF2R Emax” value was 6.15%. Also, in the test with CRF1R, the “CRF1R EC50” value is 100 nM and the “CRF1R Emax” value is 7.3%.

B8: SEQ ID NO 114 (peptide)
peptide: IVLSLDVPIGLLQILLEQARQRAAREQATTNARILARV-NH2
As for B8, in the test with CRF2R, the “CRF2R EC50” value was 3.42 nM and the “CRF2R Emax” value was determined as 100%. In the test with CRF1R, the “CRF1R EC50” value is above 100 nM and the “CRF1R Emax” value was found to be 6%.

B9: SEQ ID NO 105 (peptide)
peptide: SQEPPISLDLPTQLLREVLEMTKADQLAQQAHSNRKLLDIA-NH2
B9: in the test with CRF2R, the “CRF2R EC50” value is 100 nM and the “CRF2R Emax” value was 9.15%. In addition, in the test with CRF1R, the “CRF1R EC50” value is 100 nM and the “CRF1R Emax” value was determined as 5.2%.

B10: SEQ ID NO 100 (peptide)
peptide: SQEPPISLDLPIQLLREVLEMTKADQLAQQAHSNRKLLDIA-NH2
Consider B10, for which, in the test with CRF2R, the “CRF2R EC50” value was found to be 100 nM and the “CRF2R Emax” value was 9.85%. In the test with CRF1R, the “CRF1R EC50” value is 100 nM and the “CRF1R Emax” value is 6.25%.

B11: SEQ ID NO 90 (peptide)
peptide: SQEPPISLDLPLGLLREVLEMTKADQLAQQAHSNRKLLDIA-NH2
In the case of B11, in the test with CRF2R, the “CRF2R EC50” value is 100 nM and the “CRF2R Emax” value stood at 12.2%. In the test with CRF1R, the “CRF1R EC50” value amounted to 100 nM and the “CRF1R Emax” value is 4%.

B12: SEQ ID NO 7 (peptide)
peptide: SQEIVLSLDVPIGLLREVLEMTKADQLAQQAHSNRKLLDIA-NH2
Turning to B12, in the test with CRF2R, the “CRF2R EC50” value was 100 nM and the “CRF2R Emax” value came out at 19%. Also, in the test with CRF1R, the “CRF1R EC50” value was 100 nM and the “CRF1R Emax” value stood at 4%.

B13: SEQ ID NO 101 (peptide)
peptide: SQEPPISLDLPLYLLREVLEMTKADQLAQQAHSNRKLLDIA-NH2
B13: in the test with CRF2R, the “CRF2R EC50” value was determined as 100 nM and the “CRF2R Emax” value was determined as 6.95%. Moreover, in the test with CRF1R, the “CRF1R EC50” value turned out to be 100 nM and the “CRF1R Emax” value amounted to 7.35%.

B14: SEQ ID NO 98 (peptide)
peptide: SQEPPISLDLPTGLLREVLEMTKADQLAQQAHSNRKLLDIA-NH2
In the case of B14, in the test with CRF2R, the “CRF2R EC50” value was 100 nM and the “CRF2R Emax” value amounted to 5.5%. In the test with CRF1R, the “CRF1R EC50” value was 100 nM and the “CRF1R Emax” value worked out at 4%.

B15: SEQ ID NO 108 (peptide)
peptide: IVLSLDVPIGLLQILLEQTKADAAREQATTNARILARV-NH2
Regarding B15, in the test with CRF2R, the “CRF2R EC50” value was found to be 79 nM and the “CRF2R Emax” value is 97%. Also, in the test with CRF1R, the “CRF1R EC50” value was above 100 nM and the “CRF1R Emax” value turned out to be 3%.

B16: SEQ ID NO 106 (peptide)
peptide: SQEPPISLDLPTYLLREVLEMTKADQLAQQAHSNRKLLDIA-NH2
For the molecule B16, in the test with CRF2R, the “CRF2R EC50” value came to 100 nM and the “CRF2R Emax” value was determined as 6.1%. For the same molecule, in the test with CRF1R, the “CRF1R EC50” value amounted to 100 nM and the “CRF1R Emax” value stood at 4.8%.

B17: SEQ ID NO 97 (peptide)
peptide: SQEPPISLDLPFELLREVLEMTKADQLAQQAHSNRKLLDIA-NH2
Regarding B17, in the test with CRF2R, the “CRF2R EC50” value is 100 nM and the “CRF2R Emax” value turned out to be 7.6%. In the test with CRF1R, the “CRF1R EC50” value was found to be 100 nM and the “CRF1R Emax” value came to 4.25%.

B18: SEQ ID NO 113 (peptide)
peptide: IVLSLDVPIGLLQILLEQERAEAAREQATTNARILARV-NH2
On to B18, for which, in the test with CRF2R, the “CRF2R EC50” value was 11.3 nM and the “CRF2R Emax” value was found to be 98%. Moreover, in the test with CRF1R, the “CRF1R EC50” value was above 100 nM and the “CRF1R Emax” value was 4%.

B19: SEQ ID NO 109 (peptide)
peptide: IVLSLDVPIGLLQILLEQAKARAAREQATTNARILARV-NH2
As to B19, the “CRF2R EC50” value with CRF2R stood at 11.8 nM. Further, in the test with CRF1R, the “CRF1R EC50” value worked out at 100 nM.

B20: SEQ ID NO 110 (peptide)
peptide: IVLSLDVPIGLLQILLEQAKQRAAREQATTNARILARV-NH2
As to B20, in the test with CRF2R, the “CRF2R EC50” value is 11 nM and the “CRF2R Emax” value was 100%. Also, in the test with CRF1R, the “CRF1R EC50” value was above 100 nM and the “CRF1R Emax” value came out at 9%.

B21: SEQ ID NO 111 (peptide)
peptide: IVLSLDVPIGLLQILLEQERQRAAREQATTNARILARV-NH2
On to B21, for which, in the test with CRF2R, the “CRF2R EC50” value came out at 10.9 nM and the “CRF2R Emax” value amounted to 99%. Also, in the test with CRF1R, the “CRF1R EC50” value is above 100 nM and the “CRF1R Emax” value worked out at 9%.

B22: SEQ ID NO 102 (peptide)
peptide: SQEPPISLDLPLHLLREVLEMTKADQLAQQAHSNRKLLDIA-NH2
Take B22: in the test with CRF2R, the “CRF2R EC50” value came to 100 nM and the “CRF2R Emax” value came to 13.5%. In the test with CRF1R, the “CRF1R EC50” value was 100 nM and the “CRF1R Emax” value is 7.8%.

B23: SEQ ID NO 99 (peptide)
peptide: SQEPPISLDLPTHLLREVLEMTKADQLAQQAHSNRKLLDIA-NH2
Take B23: in the test with CRF2R, the “CRF2R EC50” value amounted to 100 nM and the “CRF2R Emax” value stood at 4.35%. In addition, in the test with CRF1R, the “CRF1R EC50” value came to 100 nM and the “CRF1R Emax” value came out at 4.35%.

B24: SEQ ID NO 103 (peptide)
peptide: SQEPPISLDLPFGLLREVLEMTKADQLAQQAHSNRKLLDIA-NH2
Turning to B24, in the test with CRF2R, the “CRF2R EC50” value was determined as 100 nM and the “CRF2R Emax” value was found to be 4.85%. In the test with CRF1R, the “CRF1R EC50” value stood at 100 nM and the “CRF1R Emax” value was determined as 5.75%.

B25: SEQ ID NO 86 (peptide)
peptide: SQEPPISLDLTIGLLREVLEMTKADQLAQQAHSNRKLLDIA-NH2
In the case of B25, in the test with CRF2R, the “CRF2R EC50” value came to 100 nM and the “CRF2R Emax” value is 8.1%. In addition, in the test with CRF1R, the “CRF1R EC50” value amounted to 100 nM and the “CRF1R Emax” value was 4.6%.

B26: SEQ ID NO 91 (peptide)
peptide: SQEPPISLDLPFQLLREVLEMTKADQLAQQAHSNRKLLDIA-NH2
As to B26, in the test with CRF2R, the “CRF2R EC50” value was found to be 100 nM and the “CRF2R Emax” value turned out to be 7.1%. In the test with CRF1R, the “CRF1R EC50” value is 100 nM and the “CRF1R Emax” value worked out at 4%.

B27: SEQ ID NO 96 (peptide)
peptide: SQEPPISLDLPFYLLREVLEMTKADQLAQQAHSNRKLLDIA-NH2
B27: in the test with CRF2R, the “CRF2R EC50” value came to 100 nM and the “CRF2R Emax” value is 12.5%. Further, in the test with CRF1R, the “CRF1R EC50” value came to 100 nM and the “CRF1R Emax” value stood at 16.3%.

B28: SEQ ID NO 92 (peptide)
peptide: SQEPPISLDLPTELLREVLEMTKADQLAQQAHSNRKIIDIA-NH2
With B28, in the test with CRF2R, the “CRF2R EC50” value came out at 100 nM and the “CRF2R Emax” value was 15.8%. In the test with CRF1R, the “CRF1R EC50” value was found to be 100 nM and the “CRF1R Emax” value was found to be 4.6%.

B29: SEQ ID NO 88 (peptide)
peptide: SQEPPISLDLTFGLLREVLEMTKADQLAQQAHSNRKLLDIA-NH2
As for B29, in the test with CRF2R, the “CRF2R EC50” value was 100 nM and the “CRF2R Emax” value came out at 12.6%. For the same molecule, in the test with CRF1R, the “CRF1R EC50” value is 100 nM and the “CRF1R Emax” value came to 11.2%.

B30: SEQ ID NO 9 (peptide)
peptide: IVLSLDVPIGLLQILLEQARARAAREQATTQARILARV-NH2
As for B30, in the test with CRF2R, the “CRF2R EC50” value stood at 100 nM and the “CRF2R Emax” value turned out to be 34%. Moreover, in the test with CRF1R, the “CRF1R EC50” value was found to be 100 nM and the “CRF1R Emax” value was 10%.

Values taken from US20030148956A1 (PROCTER AND GAMBLE, published 2003).
